Our source for the Kd values is patent US20230333112 (published 2023).

This experiment concerns the target T1, human NKp30 (BKM0179) (human, UniProt O14931).
T1 chain: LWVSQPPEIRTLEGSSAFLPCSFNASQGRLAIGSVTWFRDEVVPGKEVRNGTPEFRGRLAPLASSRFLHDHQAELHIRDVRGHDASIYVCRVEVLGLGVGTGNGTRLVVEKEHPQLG
As to the kind of experiment: SPR. For orientation: Surface plasmon resonance follows binding to a sensor surface in real time, without labels.

B1: BJM1078 (BJM0407 parental) (antibody, V domains shown)
VH: EIQLLESGGGLVQPGGSLRLSCAVSGFSITTTGYHWNWVRQAPGKGLEWVGYIYSSGSTSYNPSLKSRFTISRDTSKNTFYLQMNSLRAEDTAVYYCARGDWHYFDYWGQGTMVTVSS
VL: QSVTTQPPSVSGAPGQRVTISCSGEKLSDKYVHWYQQLPGTAPKMLIYENDRRPSGVPDRFSGSNSGNSASLAITGLQAEDEADYFCQFWDSTNSAVFGGGTQLTVL
As a reminder, the Kd is the concentration at which binding is half-saturated. Low values mean tighter binding, high ones weaker binding. Consider B1, for which the Kd was found to be 1.48 nM.
